The RNAGym collection of RNA variant scans (doi:10.1021/acssynbio.7b00057)

B1: Pistol ribozyme (parent)
chain: GGGUCGUUGUUCCAUAAUCGCGUGGAUAUGGCACGCAAGUUUCUACCGGGCACCGUAAAUGUCCGACUGGAGCCGUUCGGGCGGCUAUAAACAGACCUCAGGCCCGAAGCGUGGCGGCACCUGCCGCCGGUGGUAAAAAAGAUCGGAAGAGCACACGUCU

Variants of: B1
Experiment: aptazyme ON/OFF ratio, guanine; higher = stronger switching; co-transcriptional cleavage with and without guanine

Row | Variant | aptazyme ON/OFF ratio
1 | GGGUCGUUUAUAUAUAAUCGCGUGGAUAUGGCACGCAAGUUUCUACCGGGCACCGUAAAUGUCCGACUGGAGCCGUUCGGGCGGCUAUAAACAGACCUCAGGCCCGAAGCGUGGCGGCACCUGCCGCCGGUGGUAAAAAAGAUCGGAAGAGCACACGUCU [G9U U10A C12A C13U] | 1.09
2 | GGGUCGUUUAUAAAUAAUCGCGUGGAUAUGGCACGCAAGUUUCUACCGGGCACCGUAAAUGUCCGACUGGAGCCGUUCGGGCGGCUAUAAACAGACCUCAGGCCCGAAGCGUGGCGGCACCUGCCGCCGGUGGUAAAAAAGAUCGGAAGAGCACACGUCU [G9U U10A C12A C13A] | 1.22
3 | GGGUCGUUUAUAGAUAAUCGCGUGGAUAUGGCACGCAAGUUUCUACCGGGCACCGUAAAUGUCCGACUGGAGCCGUUCGGGCGGCUAUAAACAGACCUCAGGCCCGAAGCGUGGCGGCACCUGCCGCCGGUGGUAAAAAAGAUCGGAAGAGCACACGUCU [G9U U10A C12A C13G] | 0.84
4 | GGGUCGUUUAAUUAUAAUCGCGUGGAUAUGGCACGCAAGUUUCUACCGGGCACCGUAAAUGUCCGACUGGAGCCGUUCGGGCGGCUAUAAACAGACCUCAGGCCCGAAGCGUGGCGGCACCUGCCGCCGGUGGUAAAAAAGAUCGGAAGAGCACACGUCU [G9U U10A U11A C12U C13U] | 1.08
5 | GGGUCGUUUAAUAAUAAUCGCGUGGAUAUGGCACGCAAGUUUCUACCGGGCACCGUAAAUGUCCGACUGGAGCCGUUCGGGCGGCUAUAAACAGACCUCAGGCCCGAAGCGUGGCGGCACCUGCCGCCGGUGGUAAAAAAGAUCGGAAGAGCACACGUCU [G9U U10A U11A C12U C13A] | 1.09
6 | GGGUCGUUUAAUGAUAAUCGCGUGGAUAUGGCACGCAAGUUUCUACCGGGCACCGUAAAUGUCCGACUGGAGCCGUUCGGGCGGCUAUAAACAGACCUCAGGCCCGAAGCGUGGCGGCACCUGCCGCCGGUGGUAAAAAAGAUCGGAAGAGCACACGUCU [G9U U10A U11A C12U C13G] | 1.7
7 | GGGUCGUUUAUUAAUAAUCGCGUGGAUAUGGCACGCAAGUUUCUACCGGGCACCGUAAAUGUCCGACUGGAGCCGUUCGGGCGGCUAUAAACAGACCUCAGGCCCGAAGCGUGGCGGCACCUGCCGCCGGUGGUAAAAAAGAUCGGAAGAGCACACGUCU [G9U U10A C12U C13A] | 0.769
8 | GGGUCGUUUAUUUAUAAUCGCGUGGAUAUGGCACGCAAGUUUCUACCGGGCACCGUAAAUGUCCGACUGGAGCCGUUCGGGCGGCUAUAAACAGACCUCAGGCCCGAAGCGUGGCGGCACCUGCCGCCGGUGGUAAAAAAGAUCGGAAGAGCACACGUCU [G9U U10A C12U C13U] | 1.06
9 | GGGUCGUUUAUUGAUAAUCGCGUGGAUAUGGCACGCAAGUUUCUACCGGGCACCGUAAAUGUCCGACUGGAGCCGUUCGGGCGGCUAUAAACAGACCUCAGGCCCGAAGCGUGGCGGCACCUGCCGCCGGUGGUAAAAAAGAUCGGAAGAGCACACGUCU [G9U U10A C12U C13G] | 1.1
10 | GGGUCGUUUUUCUAUAAUCGCGUGGAUAUGGCACGCAAGUUUCUACCGGGCACCGUAAAUGUCCGACUGGAGCCGUUCGGGCGGCUAUAAACAGACCUCAGGCCCGAAGCGUGGCGGCACCUGCCGCCGGUGGUAAAAAAGAUCGGAAGAGCACACGUCU [G9U C13U] | 2.07
11 | GGGUCGUUUUUCGAUAAUCGCGUGGAUAUGGCACGCAAGUUUCUACCGGGCACCGUAAAUGUCCGACUGGAGCCGUUCGGGCGGCUAUAAACAGACCUCAGGCCCGAAGCGUGGCGGCACCUGCCGCCGGUGGUAAAAAAGAUCGGAAGAGCACACGUCU [G9U C13G] | 1.09
12 | GGGUCGUUUUUCAAUAAUCGCGUGGAUAUGGCACGCAAGUUUCUACCGGGCACCGUAAAUGUCCGACUGGAGCCGUUCGGGCGGCUAUAAACAGACCUCAGGCCCGAAGCGUGGCGGCACCUGCCGCCGGUGGUAAAAAAGAUCGGAAGAGCACACGUCU [G9U C13A] | 1.34
13 | GGGUCGUUUAACCAUAAUCGCGUGGAUAUGGCACGCAAGUUUCUACCGGGCACCGUAAAUGUCCGACUGGAGCCGUUCGGGCGGCUAUAAACAGACCUCAGGCCCGAAGCGUGGCGGCACCUGCCGCCGGUGGUAAAAAAGAUCGGAAGAGCACACGUCU [G9U U10A U11A] | 2.34
14 | GGGUCGUUUAAAGAUAAUCGCGUGGAUAUGGCACGCAAGUUUCUACCGGGCACCGUAAAUGUCCGACUGGAGCCGUUCGGGCGGCUAUAAACAGACCUCAGGCCCGAAGCGUGGCGGCACCUGCCGCCGGUGGUAAAAAAGAUCGGAAGAGCACACGUCU [G9U U10A U11A C12A C13G] | 1.29
15 | GGGUCGUUUAAAAAUAAUCGCGUGGAUAUGGCACGCAAGUUUCUACCGGGCACCGUAAAUGUCCGACUGGAGCCGUUCGGGCGGCUAUAAACAGACCUCAGGCCCGAAGCGUGGCGGCACCUGCCGCCGGUGGUAAAAAAGAUCGGAAGAGCACACGUCU [G9U U10A U11A C12A C13A] | 1.37
16 | GGGUCGUUUAAAUAUAAUCGCGUGGAUAUGGCACGCAAGUUUCUACCGGGCACCGUAAAUGUCCGACUGGAGCCGUUCGGGCGGCUAUAAACAGACCUCAGGCCCGAAGCGUGGCGGCACCUGCCGCCGGUGGUAAAAAAGAUCGGAAGAGCACACGUCU [G9U U10A U11A C12A C13U] | 1.41
17 | GGGUCGUUUAUGGAUAAUCGCGUGGAUAUGGCACGCAAGUUUCUACCGGGCACCGUAAAUGUCCGACUGGAGCCGUUCGGGCGGCUAUAAACAGACCUCAGGCCCGAAGCGUGGCGGCACCUGCCGCCGGUGGUAAAAAAGAUCGGAAGAGCACACGUCU [G9U U10A C12G C13G] | 1.33
18 | GGGUCGUUUAUGAAUAAUCGCGUGGAUAUGGCACGCAAGUUUCUACCGGGCACCGUAAAUGUCCGACUGGAGCCGUUCGGGCGGCUAUAAACAGACCUCAGGCCCGAAGCGUGGCGGCACCUGCCGCCGGUGGUAAAAAAGAUCGGAAGAGCACACGUCU [G9U U10A C12G C13A] | 1.07

Row | Variant | aptazyme ON/OFF ratio
19 | GGGUCGUUUAUGUAUAAUCGCGUGGAUAUGGCACGCAAGUUUCUACCGGGCACCGUAAAUGUCCGACUGGAGCCGUUCGGGCGGCUAUAAACAGACCUCAGGCCCGAAGCGUGGCGGCACCUGCCGCCGGUGGUAAAAAAGAUCGGAAGAGCACACGUCU [G9U U10A C12G C13U] | 1.21
20 | GGGUCGUUUAUCAAUAAUCGCGUGGAUAUGGCACGCAAGUUUCUACCGGGCACCGUAAAUGUCCGACUGGAGCCGUUCGGGCGGCUAUAAACAGACCUCAGGCCCGAAGCGUGGCGGCACCUGCCGCCGGUGGUAAAAAAGAUCGGAAGAGCACACGUCU [G9U U10A C13A] | 1.27
21 | GGGUCGUUUAUCUAUAAUCGCGUGGAUAUGGCACGCAAGUUUCUACCGGGCACCGUAAAUGUCCGACUGGAGCCGUUCGGGCGGCUAUAAACAGACCUCAGGCCCGAAGCGUGGCGGCACCUGCCGCCGGUGGUAAAAAAGAUCGGAAGAGCACACGUCU [G9U U10A C13U] | 1.54
22 | GGGUCGUUUAUCGAUAAUCGCGUGGAUAUGGCACGCAAGUUUCUACCGGGCACCGUAAAUGUCCGACUGGAGCCGUUCGGGCGGCUAUAAACAGACCUCAGGCCCGAAGCGUGGCGGCACCUGCCGCCGGUGGUAAAAAAGAUCGGAAGAGCACACGUCU [G9U U10A C13G] | 1.27
23 | GGGUCGUUUUUUAAUAAUCGCGUGGAUAUGGCACGCAAGUUUCUACCGGGCACCGUAAAUGUCCGACUGGAGCCGUUCGGGCGGCUAUAAACAGACCUCAGGCCCGAAGCGUGGCGGCACCUGCCGCCGGUGGUAAAAAAGAUCGGAAGAGCACACGUCU [G9U C12U C13A] | 1.23
24 | GGGUCGUUUUUUGAUAAUCGCGUGGAUAUGGCACGCAAGUUUCUACCGGGCACCGUAAAUGUCCGACUGGAGCCGUUCGGGCGGCUAUAAACAGACCUCAGGCCCGAAGCGUGGCGGCACCUGCCGCCGGUGGUAAAAAAGAUCGGAAGAGCACACGUCU [G9U C12U C13G] | 1.3
25 | GGGUCGUUUUUUUAUAAUCGCGUGGAUAUGGCACGCAAGUUUCUACCGGGCACCGUAAAUGUCCGACUGGAGCCGUUCGGGCGGCUAUAAACAGACCUCAGGCCCGAAGCGUGGCGGCACCUGCCGCCGGUGGUAAAAAAGAUCGGAAGAGCACACGUCU [G9U C12U C13U] | 1.34
26 | GGGUCGUUUAUUCAUAAUCGCGUGGAUAUGGCACGCAAGUUUCUACCGGGCACCGUAAAUGUCCGACUGGAGCCGUUCGGGCGGCUAUAAACAGACCUCAGGCCCGAAGCGUGGCGGCACCUGCCGCCGGUGGUAAAAAAGAUCGGAAGAGCACACGUCU [G9U U10A C12U] | 1.41
27 | GGGUCGUUUAUACAUAAUCGCGUGGAUAUGGCACGCAAGUUUCUACCGGGCACCGUAAAUGUCCGACUGGAGCCGUUCGGGCGGCUAUAAACAGACCUCAGGCCCGAAGCGUGGCGGCACCUGCCGCCGGUGGUAAAAAAGAUCGGAAGAGCACACGUCU [G9U U10A C12A] | 1.21
28 | GGGUCGUUUAUGCAUAAUCGCGUGGAUAUGGCACGCAAGUUUCUACCGGGCACCGUAAAUGUCCGACUGGAGCCGUUCGGGCGGCUAUAAACAGACCUCAGGCCCGAAGCGUGGCGGCACCUGCCGCCGGUGGUAAAAAAGAUCGGAAGAGCACACGUCU [G9U U10A C12G] | 1.41
29 | GGGUCGUUUAAGCAUAAUCGCGUGGAUAUGGCACGCAAGUUUCUACCGGGCACCGUAAAUGUCCGACUGGAGCCGUUCGGGCGGCUAUAAACAGACCUCAGGCCCGAAGCGUGGCGGCACCUGCCGCCGGUGGUAAAAAAGAUCGGAAGAGCACACGUCU [G9U U10A U11A C12G] | 1.47
30 | GGGUCGUUUAAUCAUAAUCGCGUGGAUAUGGCACGCAAGUUUCUACCGGGCACCGUAAAUGUCCGACUGGAGCCGUUCGGGCGGCUAUAAACAGACCUCAGGCCCGAAGCGUGGCGGCACCUGCCGCCGGUGGUAAAAAAGAUCGGAAGAGCACACGUCU [G9U U10A U11A C12U] | 1.64
31 | GGGUCGUUUAAACAUAAUCGCGUGGAUAUGGCACGCAAGUUUCUACCGGGCACCGUAAAUGUCCGACUGGAGCCGUUCGGGCGGCUAUAAACAGACCUCAGGCCCGAAGCGUGGCGGCACCUGCCGCCGGUGGUAAAAAAGAUCGGAAGAGCACACGUCU [G9U U10A U11A C12A] | 1.54
32 | GGGUCGUUUAUCCAUAAUCGCGUGGAUAUGGCACGCAAGUUUCUACCGGGCACCGUAAAUGUCCGACUGGAGCCGUUCGGGCGGCUAUAAACAGACCUCAGGCCCGAAGCGUGGCGGCACCUGCCGCCGGUGGUAAAAAAGAUCGGAAGAGCACACGUCU [G9U U10A] | 3.18
33 | GGGUCGUUUAAGAAUAAUCGCGUGGAUAUGGCACGCAAGUUUCUACCGGGCACCGUAAAUGUCCGACUGGAGCCGUUCGGGCGGCUAUAAACAGACCUCAGGCCCGAAGCGUGGCGGCACCUGCCGCCGGUGGUAAAAAAGAUCGGAAGAGCACACGUCU [G9U U10A U11A C12G C13A] | 0.999
34 | GGGUCGUUUAAGGAUAAUCGCGUGGAUAUGGCACGCAAGUUUCUACCGGGCACCGUAAAUGUCCGACUGGAGCCGUUCGGGCGGCUAUAAACAGACCUCAGGCCCGAAGCGUGGCGGCACCUGCCGCCGGUGGUAAAAAAGAUCGGAAGAGCACACGUCU [G9U U10A U11A C12G C13G] | 1.51
35 | GGGUCGUUUAAGUAUAAUCGCGUGGAUAUGGCACGCAAGUUUCUACCGGGCACCGUAAAUGUCCGACUGGAGCCGUUCGGGCGGCUAUAAACAGACCUCAGGCCCGAAGCGUGGCGGCACCUGCCGCCGGUGGUAAAAAAGAUCGGAAGAGCACACGUCU [G9U U10A U11A C12G C13U] | 1.64
36 | GGGUCGUUUAACAAUAAUCGCGUGGAUAUGGCACGCAAGUUUCUACCGGGCACCGUAAAUGUCCGACUGGAGCCGUUCGGGCGGCUAUAAACAGACCUCAGGCCCGAAGCGUGGCGGCACCUGCCGCCGGUGGUAAAAAAGAUCGGAAGAGCACACGUCU [G9U U10A U11A C13A] | 1.38
